Measured values from the supplement of paper PMC9732359.
± gives the uncertainty stated by the source.

Assay: protein stability index of a GFP-peptide fusion (yeast GPS) (PSI 1-4); higher = more stable; sorted into four equal gates, so the index is relative within each strain
How it was run: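 Plasmids isolated from each sorting gate were PCR-amplified and Illumina-sequenced, and barcodes assigned the reads to strains. The gates, four of equal size, were set by GFP/Cherry fluorescence ratio on mid-log cultures in leucine-free medium. These cultures were yeast carrying a pooled library of tiled 17-residue yeast protein peptides fused downstream of GFP on a plasmid that also expresses Cherry. The protein stability index is the sum of every gate's read frequency times its gate number.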

Sequence	protein stability index (doa10∆)	protein stability index (pdr5∆)	protein stability index (san1∆)	protein stability index (ubr1∆)
INHEDGFIETTELLNIY [RPN3]	2.97 ± 0.079	2.93 ± 0.1	3.09 ± 0.072	3.19 ± 0.066
KVIPYSTFRLNLSVTSP [RPO21]	1.67 ± 0.065	1.53 ± 0.075	1.14 ± 0.24	1.97 ± 0.13
LGSDSSDGHNSEKKDTD [SRB4]	1.68 ± 0.11	2.02 ± 0.2	1.59 ± 0.27	–
TLKYICAECSSKLSLSR [RPC10]	2.46 ± 0.063	2.51 ± 0.069	2.7 ± 0.057	2.65 ± 0.056
VIEMKRCFENLQNKSFK [UBP6]	3.33 ± 0.15	3.28 ± 0.2	3.1 ± 0.16	3.13 ± 0.1
FLNNGEVDSASDFISKL [RPN3]	2.57 ± 0.29	3.33 ± 0.21	2.8 ± 0.27	3.29 ± 0.13
MIQTPRELLNPRYTYHT [YML031W/NDC1]	2.95 ± 0.078	2.83 ± 0.081	2.98 ± 0.11	3.35 ± 0.14
ELIVSEEIPINSSEQES [SIR3]	2.28 ± 0.054	2.24 ± 0.051	2.82 ± 0.053	2.18 ± 0.037
KGLLIWRLLFIDKFIMV [GRR1]	1.43 ± 0.062	1.35 ± 0.048	1.41 ± 0.089	1.5 ± 0.052
PSLNNKISDDELERILK [RPB4]	3.09 ± 0.096	2.9 ± 0.098	3.06 ± 0.09	3.21 ± 0.07
SKVYYNLGEYESAVKYA [RPN2]	2.62 ± 0.16	2.9 ± 0.093	2.8 ± 0.084	2.84 ± 0.056
LKKKYQIILDRFAPDNQ [SIR3]	1.9 ± 0.09	1.85 ± 0.082	1.68 ± 0.13	1.74 ± 0.062
STKKDTVQLTFLIDVLK [YCG1]	2.38 ± 0.096	2.72 ± 0.068	2.47 ± 0.078	2.81 ± 0.068
KDSLDNTFVTRLNNVFV [RPS4A]	3.02 ± 0.11	3.02 ± 0.078	2.95 ± 0.085	2.95 ± 0.062
PKPLKFLRPTYPDLCSI [RPN1]	2.61 ± 0.07	2.69 ± 0.067	2.4 ± 0.06	2.5 ± 0.042
IVKNAEQHNLVKKGPVR [RPS20]	2.84 ± 0.058	3.13 ± 0.066	2.9 ± 0.072	2.95 ± 0.078
IIQGRKNFDMLNSMEKD [PCI8]	2.63 ± 0.083	2.77 ± 0.074	2.95 ± 0.046	2.71 ± 0.047
LEHPYGKEVEVLMETKN [SNU114]	2.26 ± 0.083	2.98 ± 0.068	2 ± 0.1	2.21 ± 0.057
LDMELAELDPSLRTPIA [SEC65]	3.34 ± 0.14	3.26 ± 0.092	3.08 ± 0.081	3.06 ± 0.076
RKHTRGDVSSGLFEKST [BRN1]	2.81 ± 0.16	3.27 ± 0.1	2.5 ± 0.14	–
PTDQNNQSNLNGGNNTQ [SNF2]	2.46 ± 0.083	3.03 ± 0.072	3.13 ± 0.079	3.01 ± 0.063
GEIIDISAFTQFLRLIF [ARP9]	2.45 ± 0.08	2.23 ± 0.075	2.59 ± 0.11	2.94 ± 0.065
SKIRKIHIQETQEFSKN [SIR3]	3.45 ± 0.11	3.08 ± 0.15	–	3.36 ± 0.084
LEKGNNPSVKQGEVGAV [SWP82]	2.89 ± 0.076	3.13 ± 0.083	3.44 ± 0.052	2.7 ± 0.074
QIANDPSKKRRRDFGAP [SMD1]	2.81 ± 0.12	3.18 ± 0.1	2.86 ± 0.092	3.25 ± 0.073
EILNIFKHISVKDFTSL [RPO21]	2.41 ± 0.14	2.23 ± 0.12	2.14 ± 0.11	1.85 ± 0.046

Sequence	protein stability index (doa10∆)	protein stability index (pdr5∆)	protein stability index (san1∆)	protein stability index (ubr1∆)
VDVAIPCNNRGKHSIGL [RPS0A]	2.81 ± 0.096	2.91 ± 0.1	3.09 ± 0.067	3.07 ± 0.11
QIKGLQWMVSLFNNHLN [SNF2]	1.79 ± 0.12	1.74 ± 0.097	1.4 ± 0.14	1.36 ± 0.058
KSSSNRSCVSNSNENGT [RPN4]	3.02 ± 0.06	3.08 ± 0.07	3.01 ± 0.05	3.03 ± 0.048
IIVQYLTKFRQKLMQLV [RGR1]	2.65 ± 0.089	2.88 ± 0.16	2.56 ± 0.083	2.46 ± 0.1
RKVVKPSSLNSDKIPYV [SRB4]	2.74 ± 0.23	3.23 ± 0.13	3.06 ± 0.18	3.23 ± 0.12
PAPSKPVIDYELKEITS [BRR2]	3.15 ± 0.079	3.2 ± 0.081	2.97 ± 0.068	3.1 ± 0.07
GNKNQFEPSISRSNFQG [LRP1]	2.76 ± 0.13	2.7 ± 0.16	2.74 ± 0.073	2.34 ± 0.21
TNWARTTFRNEYGKHDF [MED8]	2.82 ± 0.097	2.56 ± 0.079	2.91 ± 0.088	3.55 ± 0.19
LKVDPDMLTWVDSNLPD [RPC40]	3.02 ± 0.082	3.13 ± 0.062	2.54 ± 0.16	3.26 ± 0.073
LKTNFETEWNLQTLAAD [RPB11]	2.79 ± 0.13	2.91 ± 0.11	2.53 ± 0.079	2.67 ± 0.1
SERIVDCIIRLPVKWET [FAS1]	2.3 ± 0.089	1.97 ± 0.083	1.75 ± 0.12	2.62 ± 0.056
EDEAALAKLVSTIDANF [RPL8A]	2.91 ± 0.065	3.02 ± 0.068	2.66 ± 0.062	2.85 ± 0.05
LTIGVKFFMKHGLILEL [SRB5]	1.71 ± 0.05	1.62 ± 0.052	1.65 ± 0.062	1.94 ± 0.033
RGFNNQIMQLKKICNHP [SNF2]	3.13 ± 0.066	3.15 ± 0.067	3.07 ± 0.049	3.2 ± 0.06
DYRVLVDKSRKVAHTSY [PRE8]	2.81 ± 0.12	2.48 ± 0.13	2.3 ± 0.13	2.08 ± 0.095
VVDILSANGYLNATTAM [BRR2]	2.75 ± 0.21	3.3 ± 0.22	3.17 ± 0.16	3.06 ± 0.2
MAESTTLETIEIHPITF [RRP43]	3.04 ± 0.073	2.58 ± 0.047	3.06 ± 0.044	2.68 ± 0.04
KPETLSIGKNPFNKPNI [SWI3]	2.85 ± 0.044	2.9 ± 0.041	2.75 ± 0.033	2.99 ± 0.03
SGDRLTRASKVLEQLSG [RPL11A]	–	3.12 ± 0.13	2.43 ± 0.27	2.92 ± 0.13
SDLRVLSGSISERIVDC [FAS1]	2.95 ± 0.14	3.45 ± 0.15	3.41 ± 0.087	3.26 ± 0.098
EENDLQQKLNTRMQRGH [REC8]	3.17 ± 0.12	3.14 ± 0.078	3.2 ± 0.22	3.4 ± 0.048
DIKANGSIQKGMPHKFY [RPL21A]	3.01 ± 0.21	3.07 ± 0.15	3.07 ± 0.28	3.64 ± 0.14
TPMGGFVHYGEIKNDFI [RPL3]	3.32 ± 0.093	3.19 ± 0.092	3.27 ± 0.12	3.28 ± 0.078
SSGAGTVKLYLPEILNV [ECM29]	1.45 ± 0.065	1.72 ± 0.055	2.02 ± 0.075	1.47 ± 0.066
VDSTFQKVSENFEAVFE [SMC3]	3.32 ± 0.088	3.38 ± 0.081	3.42 ± 0.063	3.09 ± 0.048
PAFSFGTKSNEKKDSGS [YJL041W/NSP1]	3.17 ± 0.075	3.46 ± 0.075	3.44 ± 0.044	3.25 ± 0.065
